Data taken from the Immune Epitope Database (IEDB).

How the values were obtained:
HLA-A*68:02 [1] = assay: IEDB peptide-MHC binding, cellular MHC/competitive/fluorescence; ≥ and ≤ were set here for values at or beyond the usual limits of such assays
HLA-A*02:03 = assay: as above
HLA-A*02:06 = assay: as above
HLA-A*02:02 = assay: as above
HLA-A*02:01 [2] = assay: as above
HLA-A*02:01 [3] = assay: IEDB peptide-MHC binding, purified MHC/competitive/radioactivity; ≥ and ≤ were set here for values at or beyond the usual limits of such assays; conditions: source organism: Vaccinia virus WR
HLA-A*68:02 [4] = assay: as above; conditions: source organism: Vaccinia virus WR
[5] = source organism: Vaccinia virus WR
[6] = source organism: Mammarenavirus choriomeningitidis
[7] = source organism: Influenza A virus

Sequence | IC50 (HLA-A*68:02 [1]; [5]) | IC50 (HLA-A*02:03; [5]) | IC50 (HLA-A*02:06; [5]) | IC50 (HLA-A*02:02; [5]) | IC50 (HLA-A*02:01 [2]; [5]) | IC50 (HLA-A*68:02 [4]) | further results
LLTHGADPNA | ≥ 70 µM | 7.51 µM | 15.7 µM | 9.61 µM | 11.2 µM |  | 
SNSEDLLKAV |  |  |  |  |  |  | IC50 (HLA-A*68:02 [1]; [6]): 43 µM; IC50 (HLA-A*02:03; [6]): 15.2 µM; IC50 (HLA-A*02:06; [6]): 10 µM; IC50 (HLA-A*02:02; [6]): 17.8 µM; IC50 (HLA-A*02:01 [2]; [6]): 7.84 µM
DMICCDSRIV | 13.3 µM | 6.08 µM | 18.9 µM | 11.3 µM | 34.7 µM |  | 
EAKTHFSTT | 13.2 µM | 25.1 µM | 55.2 µM | 36.6 µM | 27.7 µM |  | 
RAEIIRMMEGA |  |  |  |  |  |  | IC50 (HLA-A*68:02 [1]; [7]): 54.7 µM; IC50 (HLA-A*02:03; [7]): 10 µM; IC50 (HLA-A*02:06; [7]): ≥ 70 µM; IC50 (HLA-A*02:02; [7]): 11.8 µM; IC50 (HLA-A*02:01 [2]; [7]): ≥ 70 µM
TVLGVSIL |  |  |  |  |  |  | IC50 (HLA-A*68:02 [1]; [7]): 15.8 µM; IC50 (HLA-A*02:03; [7]): 14.2 µM; IC50 (HLA-A*02:06; [7]): 5.69 µM; IC50 (HLA-A*02:02; [7]): 23.9 µM; IC50 (HLA-A*02:01 [2]; [7]): 6.79 µM
AIKSNNHLT | 46.1 µM | 28.6 µM | ≥ 70 µM | 50.7 µM | 27.2 µM |  | 
RAVKLYRKL |  |  |  |  |  |  | IC50 (HLA-A*68:02 [1]; [7]): ≥ 70 µM; IC50 (HLA-A*02:03; [7]): 49.9 µM; IC50 (HLA-A*02:06; [7]): ≥ 70 µM; IC50 (HLA-A*02:02; [7]): ≥ 70 µM; IC50 (HLA-A*02:01 [2]; [7]): 53.5 µM
LLDEPLSPDT | ≥ 70 µM | 10.1 µM | 7.84 µM | 8.51 µM |  |  | IC50 (HLA-A*02:01 [3]): 3.6 µM
IAVFDSKLI | 6.79 µM | 11.9 µM | 11.9 µM | 7.85 µM |  |  | IC50 (HLA-A*02:01 [3]): 3.85 µM
DTEFINKFL |  | 42.7 µM | ≥ 70 µM | 7.42 µM | ≥ 70 µM | 117 nM | 
VAEHRFENM |  | 7.16 µM | 48.1 µM | 7.13 µM | ≥ 70 µM | 4420 nM | 
TAFFNTCKPT |  | 22.3 µM | 33 µM | 31.6 µM | 37.9 µM | 535 nM | 
SVDFVVNGHT |  | ≥ 70 µM | ≥ 70 µM | ≥ 70 µM | ≥ 70 µM | 1340 nM | 
TAATKRYPGV |  | 10.5 µM | 5.57 µM | 25.5 µM | 43.1 µM | 960 nM | 
ETFPNVHEHI |  | 6.62 µM | ≥ 70 µM | 8.02 µM | 23.9 µM | 0.45 nM | 
TVDFTDCRTI |  | 10.4 µM | 10.6 µM | 31.8 µM | 29.5 µM | 348 nM | 
